# Numbered stars: 1 amine (or outer) side, 2 acyl side, 3 side chain; on linkers, the order of the positions; unused ones are H or OH. Bridge positions count the residues as written; N and C are the ends. Square brackets hold non-standard residues; d marks the D form. Ends that are not written are not given here. * marks the point of attachment. (2S,3R)βMe2Nal = L-threo-(2S,3R)-β-methyl-2-naphthylalanine, (2S,3R)-2-amino-3-(naphthalen-2-yl)butanoic acid, C[C@H](c1ccc2ccccc2c1)[C@H](N[*:1])C(=O)[*:2]; threo‑(2S,3R)CβMe‑2Nal = threo-(2S,3R)-β-methyl-2-naphthylalanine (L-threo), C[C@H](c1ccc2ccccc2c1)[C@H](N[*:1])C(=O)[*:2]; d2Nal(3S-Me) = C[C@@H](c1ccc2ccccc2c1)[C@@H](N)C(=O)O; Phe(4-CH2NH2) = NCc1ccc(C[C@H](N)C(=O)O)cc1; Tyr(127I) = tyrosine iodinated with ^127I; Phe(4-NH2) = Nc1ccc(C[C@H](N)C(=O)O)cc1; 2Nal = N[C@@H](Cc1ccc2ccccc2c1)C(=O)O; Carbamoyl = NC(=O)*
# B1: (cyclo)H-Cys-Phe-4Aph-2Nal-Lys-Thr-Phe-Cys-OH (peptide)
# peptide: H-CF[Phe(4-NH2)][2Nal]KTFC-OH
# modifications: disulfide 1-8
# SMILES: C[C@@H](O)[C@@H]1NC(=O)[C@H](CCCCN)NC(=O)[C@H](Cc2ccc3ccccc3c2)NC(=O)[C@H](Cc2ccc(N)cc2)NC(=O)[C@H](Cc2ccccc2)NC(=O)[C@@H](N)CSSC[C@@H](C(=O)O)NC(=O)[C@H](Cc2ccccc2)NC1=O
# notes: synthetic cyclic octapeptide; also called Peptide 5; Peptide No. 5
# B2: (cyclo)Cbm-Cys-Phe-4Aph-D-Trp-Lys-Thr-Phe-Cys-OH (peptide)
# peptide: Carbamoyl-CF[Phe(4-NH2)][dW]KTFC-OH
# modifications: disulfide 1-8
# SMILES: C[C@@H](O)[C@@H]1NC(=O)[C@H](CCCCN)NC(=O)[C@@H](Cc2c[nH]c3ccccc23)NC(=O)[C@H](Cc2ccc(N)cc2)NC(=O)[C@H](Cc2ccccc2)NC(=O)[C@@H](NC(N)=O)CSSC[C@@H](C(=O)O)NC(=O)[C@H](Cc2ccccc2)NC1=O
# notes: synthetic cyclic octapeptide; also called Peptide No. 4
# B3: (cyclo)H-Tyr-Cys-Phe-4Aph-Trp-Lys-Thr-Phe-Cys-OH (peptide)
# peptide: H-YCF[Phe(4-NH2)]WKTFC-OH
# modifications: disulfide 2-9
# notes: synthetic cyclic nonapeptide; also called Peptide No. 6
# B4: (cyclo)Cbm-Cys-Phe-4Aph-Trp-Lys-Thr-Phe-Cys-OH (peptide)
# peptide: Carbamoyl-CF[Phe(4-NH2)]WKTFC-OH
# modifications: disulfide 1-8
# notes: synthetic cyclic octapeptide; also called Peptide No. 3
# B5: (cyclo)H-Tyr-Cys-Phe-4Aph-D-Trp-Lys-Thr-Phe-Cys-OH (peptide)
# peptide: H-YCF[Phe(4-NH2)][dW]KTFC-OH
# modifications: disulfide 2-9
# notes: synthetic cyclic nonapeptide; also called Peptide No. 7
# B6: des-AA^1,2,4,5,12,13[4Aph^7]-SRIF, (cyclo)H-Cys-Phe-4Aph-Trp-Lys-Thr-Phe-Cys-OH (peptide)
# peptide: H-CF[Phe(4-NH2)]WKTFC-OH
# modifications: disulfide 1-8
# notes: synthetic cyclic octapeptide, free N-terminus and free acid C-terminus; also called Peptide No. 1
# B7: (cyclo)H-Cys-Phe-4Aph-Trp-Lys-Thr-Tyr-Cys-OH (peptide)
# peptide: H-CF[Phe(4-NH2)]WKTYC-OH
# modifications: disulfide 1-8
# notes: synthetic cyclic octapeptide; also called Peptide 9; Peptide No. 9
# B8: (cyclo)Cbm-Cys-Phe-4Aph-Trp-Lys-Thr-Tyr-Cys-OH (peptide)
# peptide: Carbamoyl-CF[Phe(4-NH2)]WKTYC-OH
# modifications: disulfide 1-8
# notes: synthetic cyclic octapeptide; also called Peptide No. 10
# B9: (cyclo)H-Tyr-Cys-Phe-Ala-D-Trp-Lys-Thr-Phe-Cys-OH (peptide)
# peptide: H-YCFA[dW]KTFC-OH
# modifications: disulfide 2-9
# notes: synthetic cyclic nonapeptide; also called Peptide No. 14
# B10: (cyclo)Cbm-Tyr-Cys-Phe-4Aph-Trp-Lys-Thr-Phe-Cys-OH (peptide)
# peptide: Carbamoyl-YCF[Phe(4-NH2)]WKTFC-OH
# modifications: disulfide 2-9
# notes: synthetic cyclic nonapeptide; also called Peptide No. 8
# B11: (cyclo)H-Cys-Phe-4Aph-D-Trp-Lys-Thr-Phe-Cys-OH (peptide)
# peptide: H-CF[Phe(4-NH2)][dW]KTFC-OH
# modifications: disulfide 1-8
# notes: synthetic cyclic octapeptide; also called Peptide No. 2
# B12: (cyclo)H-Cys-Phe-Tyr-threo-(2R,3S)C^βMe-2Nal-Lys-Thr-Phe-Cys-OH (peptide)
# peptide: H-CFY[d2Nal(3S-Me)]KTFC-OH
# modifications: disulfide 1-8
# SMILES: C[C@@H](O)[C@@H]1NC(=O)[C@H](CCCCN)NC(=O)[C@@H]([C@@H](C)c2ccc3ccccc3c2)NC(=O)[C@H](Cc2ccc(O)cc2)NC(=O)[C@H](Cc2ccccc2)NC(=O)[C@@H](N)CSSC[C@@H](C(=O)O)NC(=O)[C@H](Cc2ccccc2)NC1=O
# notes: also called Peptide No. 17
# B13: (cyclo)H-D-Cys-Phe-Tyr-threo-(2S,3R)C^βMe-2Nal-Lys-Thr-Phe-Cys-OH (peptide)
# peptide: H-[dC]FY[(2S,3R)βMe2Nal]KTFC-OH
# modifications: disulfide 1-8
# SMILES: C[C@H](c1ccc2ccccc2c1)[C@@H]1NC(=O)[C@H](Cc2ccc(O)cc2)NC(=O)[C@H](Cc2ccccc2)NC(=O)[C@H](N)CSSC[C@@H](C(=O)O)NC(=O)[C@H](Cc2ccccc2)NC(=O)[C@H]([C@@H](C)O)NC(=O)[C@H](CCCCN)NC1=O
# notes: also called Peptide No. 16A; Peptide 16A
# B14: (cyclo)H-Cys-Phe-Ala-D-Trp-Lys-Thr-Phe-Cys-OH (peptide)
# peptide: H-CFA[dW]KTFC-OH
# modifications: disulfide 1-8
# SMILES: C[C@@H]1NC(=O)[C@H](Cc2ccccc2)NC(=O)[C@@H](N)CSSC[C@@H](C(=O)O)NC(=O)[C@H](Cc2ccccc2)NC(=O)[C@H]([C@@H](C)O)NC(=O)[C@H](CCCCN)NC(=O)[C@@H](Cc2c[nH]c3ccccc23)NC1=O
# notes: synthetic cyclic octapeptide; also called Peptide 11; Peptide No. 11
# B15: (cyclo)H-Tyr-Cys-Phe-Ala-Trp-Lys-Thr-Phe-Cys-OH (peptide)
# peptide: H-YCFAWKTFC-OH
# modifications: disulfide 2-9
# notes: synthetic cyclic nonapeptide; also called Peptide No. 13
# B16: (cyclo)H-Cys-Phe-Tyr-threo-(2S,3R)C^βMe-2Nal-Lys-Thr-Phe-Cys-OH (peptide)
# peptide: H-CFY[threo‑(2S,3R)CβMe‑2Nal]KTFC-OH
# modifications: disulfide 1-8
# SMILES: C[C@H](c1ccc2ccccc2c1)[C@@H]1NC(=O)[C@H](Cc2ccc(O)cc2)NC(=O)[C@H](Cc2ccccc2)NC(=O)[C@@H](N)CSSC[C@@H](C(=O)O)NC(=O)[C@H](Cc2ccccc2)NC(=O)[C@H]([C@@H](C)O)NC(=O)[C@H](CCCCN)NC1=O
# notes: later-eluting isomer, determined to incorporate the L-threo-β-Me-2Nal residue; also called Peptide No. 17A; 17a
# B17: (cyclo)H-Tyr-Cys-Phe-4 Amp-Trp-Lys-Thr-Phe-Cys-OH (peptide)
# peptide: H-YCF[Phe(4-CH2NH2)]WKTFC-OH
# modifications: disulfide 2-9
# notes: here position 7 is 4Amp; also called Peptide 15; Peptide No. 15
# B18: (cyclo)Cbm-Tyr-Cys-Phe-Amp-Trp-Lys-Thr-Phe-Cys-OH (peptide)
# peptide: Carbamoyl-YCF[Phe(4-CH2NH2)]WKTFC-OH
# modifications: disulfide 2-9
# notes: synthetic cyclic nonapeptide; also called Peptide No. 15A
# B19: des-AA^1,2,4,5,12,13-[Ala^7]SRIF, (cyclo)H-Cys-Phe-Ala-Trp-Lys-Thr-Phe-Cys-OH (peptide)
# peptide: H-CFAWKTFC-OH
# modifications: disulfide 1-8
# SMILES: C[C@@H]1NC(=O)[C@H](Cc2ccccc2)NC(=O)[C@@H](N)CSSC[C@@H](C(=O)O)NC(=O)[C@H](Cc2ccccc2)NC(=O)[C@H]([C@@H](C)O)NC(=O)[C@H](CCCCN)NC(=O)[C@H](Cc2c[nH]c3ccccc23)NC1=O
# notes: synthetic cyclic octapeptide; also called Peptide No. 12
# B20: Peptide No. 13 iodinated with ^127I (peptide)
# peptide: [Tyr(127I)]CFAWKTFC
# modifications: disulfide 2-9
# notes: also called Peptide No. 13A; the I-Tyr^2 analog
# B21: (cyclo)Cbm-Tyr-Cys-Phe-Ala-Trp-Lys-Thr-Phe-Cys-OH (peptide)
# peptide: Carbamoyl-YCFAWKTFC-OH
# modifications: disulfide 2-9
# notes: synthetic cyclic nonapeptide; also called Peptide No. 13B
# B22: (cyclo)Cys-Phe-Ala-D-Trp-Lys-Thr-Ala-Cys-OH (peptide)
# peptide: CFA[dW]KTAC-OH
# modifications: disulfide 1-8
# notes: synthetic cyclic octapeptide; also called Peptide No. 12B
# B23: (cyclo)H-Cys-Phe-Ala-Trp-Lys-Thr-Ala-Cys-OH (peptide)
# peptide: H-CFAWKTAC-OH
# modifications: disulfide 1-8
# notes: synthetic cyclic octapeptide; also called Peptide 12A; Peptide No. 12A
# B24: (cyclo)Cbm-Cys-Phe-4Aph-D-Trp-Lys-Thr-Tyr-Cys-OH (peptide)
# peptide: Carbamoyl-CF[Phe(4-NH2)][dW]KTYC-OH
# modifications: disulfide 1-8
# notes: synthetic cyclic octapeptide; also called Peptide No. 10A
# Biological target: T1, cloned human SRIF receptor SSTR1 (human, UniProt P30872 1-391)
# T1 construct: whole, on cells; also called hSSTR1
# T1 sequence (P30872 whole entry): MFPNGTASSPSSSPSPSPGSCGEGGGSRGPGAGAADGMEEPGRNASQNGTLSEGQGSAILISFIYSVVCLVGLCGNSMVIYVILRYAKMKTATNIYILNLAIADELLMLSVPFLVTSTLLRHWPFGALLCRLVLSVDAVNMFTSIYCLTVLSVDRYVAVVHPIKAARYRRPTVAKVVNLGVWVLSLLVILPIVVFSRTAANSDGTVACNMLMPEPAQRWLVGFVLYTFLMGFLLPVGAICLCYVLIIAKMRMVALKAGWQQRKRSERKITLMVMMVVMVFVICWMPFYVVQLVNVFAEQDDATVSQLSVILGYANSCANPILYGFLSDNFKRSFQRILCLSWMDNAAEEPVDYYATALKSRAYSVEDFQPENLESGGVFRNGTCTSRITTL
# Test: radioligand displacement (125I-[Leu8,D-Trp22,Tyr25]SRIF-28), membrane pellet sections
# Method: (§1) Cells are washed twice with and scraped into ice-cold 0.05 M Tris-HCl (pH 7.4), collected by centrifugation, and homogenized using a rotor/stator/system in the same buffer. After centrifugation at 120 g for 5 min at 4° C., the supernatant is collected and centrifuged again at 48,000 g for 30 min at 4° C. The resulting pellet is resuspended in ice-cold Tris buffer, transferred into a microfuge tube, and centrifuged at 20,000 g for 15 min at 4° C. After withdrawal of the supernatant, the membrane pellet is stored at −80° C.
# (§2) Receptor autoradiography is performed on 20 μm thick cryostat sections of the membrane pellets, mounted on microscope slides, and then stored at −20° C. […] Increasing concentrations of the unlabeled peptide are used ranging from 0.1-1000 nM. Unlabeled somatostatin-28 is run in parallel using the same increasing concentrations, as a control. IC₅₀ values are calculated after quantification of the data using a computer-assisted image processing system as known in this art.
row,IC50 [nM],Binder
1,~1100,B1
2,840,B2
3,270,B3
4,650,B4
5,517,B5
6,213,B6
7,327,B7
8,757,B8
9,545,"H-[dC]FY[d2Nal(3S-Me)]KTFC-OH (disulfide 1-8, also called Peptide No. 16) [(cyclo)H-D-Cys-Phe-Tyr-threo-(2R,3S)C^βMe-2Nal-Lys-Thr-Phe-Cys-OH]"
10,330,B9
11,347,B10
12,450,B11
13,410,B12

# Biological target: T2, cloned human SRIF receptor SSTR3 (human, UniProt P32745 1-418)
# T2 construct: whole, on cells; assayed as cryostat sections of membrane pellets of the transfected cells; also called hSSTR3
# T2 sequence (P32745 whole entry): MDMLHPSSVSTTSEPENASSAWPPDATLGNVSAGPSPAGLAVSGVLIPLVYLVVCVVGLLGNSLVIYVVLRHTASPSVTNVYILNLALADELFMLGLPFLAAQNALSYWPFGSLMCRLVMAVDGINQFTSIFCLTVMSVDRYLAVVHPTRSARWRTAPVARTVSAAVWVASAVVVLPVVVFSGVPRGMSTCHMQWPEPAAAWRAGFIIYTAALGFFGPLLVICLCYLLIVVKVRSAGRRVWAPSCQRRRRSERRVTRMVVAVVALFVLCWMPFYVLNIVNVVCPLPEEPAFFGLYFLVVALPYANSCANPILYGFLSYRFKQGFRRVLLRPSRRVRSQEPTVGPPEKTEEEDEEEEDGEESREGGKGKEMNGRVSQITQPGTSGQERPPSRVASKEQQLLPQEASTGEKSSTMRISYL
# Test: as above
# Method: as §1, §2
row,IC50 [nM],Binder
1,630,B1
2,664,B13
3,650,B2
4,135,B3
5,780,B4
6,263,B5
7,897,B14
8,621,B15
9,825,B16
10,326,B17
11,14,"H-[dC]FY[d2Nal(3S-Me)]KTFC-OH (disulfide 1-8, also called Peptide No. 16) [(cyclo)H-D-Cys-Phe-Tyr-threo-(2R,3S)C^βMe-2Nal-Lys-Thr-Phe-Cys-OH]"
12,197,B18
13,750,B19
14,347,B9
15,1020,B20
16,210,B10
17,271,B11
18,980,B21
19,18,B12

# Biological target: T3, cloned human SRIF receptor SSTR4 (human, UniProt P31391 1-388)
# T3 construct: whole, on cells; assayed as cryostat sections of membrane pellets of the transfected cells; also called hSSTR4
# T3 sequence (P31391 whole entry): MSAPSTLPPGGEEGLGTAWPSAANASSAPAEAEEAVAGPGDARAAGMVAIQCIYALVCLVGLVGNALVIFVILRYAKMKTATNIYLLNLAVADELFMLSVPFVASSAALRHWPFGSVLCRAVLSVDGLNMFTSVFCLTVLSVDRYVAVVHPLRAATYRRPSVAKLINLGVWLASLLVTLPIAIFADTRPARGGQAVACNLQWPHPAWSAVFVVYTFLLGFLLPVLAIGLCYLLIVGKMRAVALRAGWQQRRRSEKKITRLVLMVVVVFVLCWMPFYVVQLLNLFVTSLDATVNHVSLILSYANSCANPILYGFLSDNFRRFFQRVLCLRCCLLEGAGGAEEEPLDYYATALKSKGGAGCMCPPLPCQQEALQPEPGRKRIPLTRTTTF
# Test: as above
# Method: as §1, §2
row,IC50 [nM],Binder
1,2.9,B1
2,3.5,B13
3,1.1,B2
4,1.9,B3
5,1.46,B4
6,1.2,B5
7,0.98,B14
8,9.5,B22
9,3.5,B23
10,1.98,B15
11,2.8,B16
12,2.4,B17
13,1.2,B6
14,4.3,B24
15,1.1,B7
16,3,B8
17,0.55,"H-[dC]FY[d2Nal(3S-Me)]KTFC-OH (disulfide 1-8, also called Peptide No. 16) [(cyclo)H-D-Cys-Phe-Tyr-threo-(2R,3S)C^βMe-2Nal-Lys-Thr-Phe-Cys-OH]"
18,3.2,B18
19,0.84,B19
20,1.1,B9
21,3.5,B20
22,1.2,B10
23,0.88,B11
24,2.36,B21
25,2.3,B12

# Biological target: T4, cloned human SRIF receptor SSTR2 (human, UniProt P30874 1-369)
# T4 construct: whole, on cells; assayed as cryostat sections of membrane pellets of the transfected cells; also called hSSTR2
# T4 sequence (P30874 whole entry): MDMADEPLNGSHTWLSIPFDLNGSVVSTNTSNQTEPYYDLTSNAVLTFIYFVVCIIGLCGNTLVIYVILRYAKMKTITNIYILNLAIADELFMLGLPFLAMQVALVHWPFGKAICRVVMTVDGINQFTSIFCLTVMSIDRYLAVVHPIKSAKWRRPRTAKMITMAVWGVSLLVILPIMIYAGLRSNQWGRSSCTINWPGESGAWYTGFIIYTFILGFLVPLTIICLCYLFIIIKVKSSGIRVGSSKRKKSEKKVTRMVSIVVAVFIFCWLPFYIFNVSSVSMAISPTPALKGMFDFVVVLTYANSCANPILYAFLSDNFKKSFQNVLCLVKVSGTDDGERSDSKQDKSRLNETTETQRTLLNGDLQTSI
# Test: as above
# Method: as §1, §2
row,IC50 [nM],Binder
1,339,B13
2,120,B2
3,260,B3
4,56,B5
5,183,B14
6,622,B15
7,194,B16
8,259,B17
9,347,B6
10,227,B24
11,170,B7
12,12,"H-[dC]FY[d2Nal(3S-Me)]KTFC-OH (disulfide 1-8, also called Peptide No. 16) [(cyclo)H-D-Cys-Phe-Tyr-threo-(2R,3S)C^βMe-2Nal-Lys-Thr-Phe-Cys-OH]"
13,118,B18
14,807,B19
15,57,B9
16,550,B10
17,71,B11
18,700,B21
19,30,B12

# Biological target: T5, cloned human SRIF receptor SSTR5 (human, UniProt P35346 1-364)
# T5 construct: whole, on cells; assayed as cryostat sections of membrane pellets of the transfected cells; also called hSSTR5
# T5 sequence (P35346 whole entry): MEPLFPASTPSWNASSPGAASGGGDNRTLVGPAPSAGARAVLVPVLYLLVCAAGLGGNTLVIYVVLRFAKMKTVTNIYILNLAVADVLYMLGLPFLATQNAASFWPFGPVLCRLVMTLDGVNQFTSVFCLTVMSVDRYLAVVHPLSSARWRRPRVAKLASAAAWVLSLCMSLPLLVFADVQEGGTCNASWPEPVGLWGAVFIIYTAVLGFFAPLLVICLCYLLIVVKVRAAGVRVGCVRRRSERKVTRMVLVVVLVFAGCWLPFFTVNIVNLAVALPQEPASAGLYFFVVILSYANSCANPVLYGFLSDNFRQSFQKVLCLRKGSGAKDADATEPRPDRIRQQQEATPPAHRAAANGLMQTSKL
# Test: as above
# Method: as §1, §2
row,IC50 [nM],Binder
1,610,B1
2,668,B13
3,103,B2
4,199,B14
5,360,B16
6,110,B24
7,240,B7
8,557,B8
9,27,"H-[dC]FY[d2Nal(3S-Me)]KTFC-OH (disulfide 1-8, also called Peptide No. 16) [(cyclo)H-D-Cys-Phe-Tyr-threo-(2R,3S)C^βMe-2Nal-Lys-Thr-Phe-Cys-OH]"
10,633,B19
11,30,B11
12,18,B12
